# Data reported in patent publication EP4566632A1, “MSLN ANTIBODY-DRUG CONJUGATE” (priority 2022, dated 2024).
# B1: BAY-949343: ADC developed by Bayer: anti-MSLN monoclonal antibody MF-T (anetumab) conjugated to maytansinoid DM4 via SPDB linker (conjugate, chains of the INN, looked up)
# VH: QVELVQSGAEVKKPGESLKISCKGSGYSFTSYWIGWVRQAPGKGLEWMGIIDPGDSRTRYSPSFQGQVTISADKSISTAYLQWSSLKASDTAMYYCARGQLYGGTYMDGWGQGTLVTVSS
# VL: DIALTQPASVSGSPGQSITISCTGTSSDIGGYNSVSWYQQHPGKAPKLMIYGVNNRPSGVSNRFSGSKSGNTASLTISGLQAEDEADYYCSSYDIESATPVFGGGTKLTVL
# modifications: DM4 via SPDB linker (ravtansine)
# Tested on: NCI-H226 cells
# Assay: Lung cancer NCI-H226 model
# Type: in vivo, BALB/c Nude mouse
# Settings: tail vein, twice a week x5, day 28 post-administration
# Experimental: NCI-H226 cells were cultured in a RPMI-1640 medium containing 10% fetal bovine serum at 37°C in a 5% CO2 atmosphere. On the day of inoculation, NCI-H226 cells in the exponential growth phase were collected. Tumor cells were first resuspended in a mixture of PBS and Matrigel (1:1) and then subcutaneously inoculated. Each BALB/c Nude mouse was subcutaneously inoculated with 5 × 10^6 NCI-H226 tumor cells. When the average tumor volume in each group of mice reached 150 mm^3, the mice were divided into groups for dosing. 55 mice were divided into 11 groups, after which dosing began. The dosing schedule was twice a week for a total of five administrations via tail vein injection at doses of 1 mg/kg body weight or 5 mg/kg body weight. After dosing began, body weight and tumor volume were measured twice weekly. Tumor volume was calculated using the formula of: Tumor Volume (mm^3) = 0.5 × Tumor long diameter × Tumor short diameter^2. Observations concluded on day 28 post-administration, followed by the euthanasia of all mice. Data analysis was performed using the t-test.
molecule,measurement,setting,value
B1,average tumor volume,1 mg/kg,497 mm^3
same,"tumor growth inhibition rate (TGI, %)",1 mg/kg,68%
same,average tumor volume,5 mg/kg,253 mm^3
same,"tumor growth inhibition rate (TGI, %)",5 mg/kg,84%
